Data as given in publication PMC7593272.

Molecular target: T1, response regulator Awo_c25920 (Reg) (Acetobacterium woodii) (UniProt H6LEQ6)
T1 sequence: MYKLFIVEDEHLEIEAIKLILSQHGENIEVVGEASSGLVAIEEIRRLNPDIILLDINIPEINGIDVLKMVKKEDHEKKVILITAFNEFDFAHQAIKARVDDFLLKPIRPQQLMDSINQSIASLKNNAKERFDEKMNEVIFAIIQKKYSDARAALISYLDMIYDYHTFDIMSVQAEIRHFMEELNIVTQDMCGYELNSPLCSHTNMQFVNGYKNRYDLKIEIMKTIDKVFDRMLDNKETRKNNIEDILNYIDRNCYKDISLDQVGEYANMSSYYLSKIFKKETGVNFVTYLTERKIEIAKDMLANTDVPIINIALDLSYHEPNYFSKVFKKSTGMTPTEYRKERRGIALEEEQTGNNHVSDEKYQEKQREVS
Assay: EMSA
Settings: EMSA in 12 ul buffer B: 50 mM Tris-HCl, 125 mM NaCl, 10 mM glycerol, 5 mM MgCl2, pH 7.8, 6% native PAGE in 1X TAE at 4 C, ethidium bromide stain

## CATAAAACTAAAAAAATAGTCAAAAAAGCAGAACAGGAAAACCTTAGGGTTAACCTGTTCTTTTTATACGTTAGAATTAGAAATGTGATTTTAAAGTACAGGTATTAGACAAAATATTACACTATGTTTTTATGGATAGAGACAAAAAACAGCGTTAGTAAAAGGTTTTCAAGGTGGTTTTAAGAAACAAACAATAATTTTATAAGAATAGCACAAGTAATTACCATAGCCTTTGAATTAAAATATAGTTAGTTCAGTAATAAAATCTTGTAATTAAGGAGGATAGAGCTT (double strand) [291 bp intergenic region upstream of pduA]
  binding: binds
